Experiments:
Experiment in all cases: crystal structure
[1] = biological target: HpiC1 F138S (Fischerella sp. ATCC 43239)
[2] = biological target: HpiC1 Y101F/F138S (Fischerella sp. ATCC 43239)
[3] = biological target: HpiC1 Y101S (Fischerella sp. ATCC 43239)
[4] = biological target: HpiC1 W73M/K132M selenomethionine derivative (Fischerella sp. ATCC 43239)
[5] = biological target: HpiC1 native (Fischerella sp. ATCC 43239)
[6] = biological target: HpiC1 Y101F (Fischerella sp. ATCC 43239)

HpiC1 F138S (enzyme)
stoichiometry N [1]: 2

HpiC1 Y101F/F138S (enzyme)
stoichiometry N [2]: 2

HpiC1 Y101S (enzyme)
stoichiometry N [3]: 2

HpiC1 W73M/K132M selenomethionine derivative (enzyme)
stoichiometry N [4]: 2

HpiC1 native (enzyme)
stoichiometry N [5]: 2

HpiC1 Y101F (enzyme)
stoichiometry N [6]: 2
